The target of this test is SAMHD1(26-626) (human, UniProt Q9Y3Z3 26-626). Kind of test: SEC. Background: In gel filtration, larger molecules generally elute earlier.
Chain of SAMHD1(26-626) (Q9Y3Z3 26-626): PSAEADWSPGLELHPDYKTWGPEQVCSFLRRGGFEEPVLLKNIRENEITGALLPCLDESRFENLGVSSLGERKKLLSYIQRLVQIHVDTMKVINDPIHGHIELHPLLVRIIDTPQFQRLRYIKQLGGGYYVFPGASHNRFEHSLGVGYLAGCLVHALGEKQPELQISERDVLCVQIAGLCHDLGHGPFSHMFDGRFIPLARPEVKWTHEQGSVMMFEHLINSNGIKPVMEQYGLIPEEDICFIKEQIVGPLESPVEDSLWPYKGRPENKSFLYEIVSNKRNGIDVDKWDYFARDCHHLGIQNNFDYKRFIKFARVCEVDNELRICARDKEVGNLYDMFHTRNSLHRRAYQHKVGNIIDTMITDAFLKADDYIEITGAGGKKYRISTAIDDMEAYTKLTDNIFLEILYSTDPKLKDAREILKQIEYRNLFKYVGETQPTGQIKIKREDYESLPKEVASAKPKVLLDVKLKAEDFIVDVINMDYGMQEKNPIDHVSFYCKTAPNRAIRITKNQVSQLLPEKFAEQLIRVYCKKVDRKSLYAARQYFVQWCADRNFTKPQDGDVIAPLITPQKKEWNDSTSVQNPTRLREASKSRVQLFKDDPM

B1: Vpxsm/DCAF1-CtD (complex)
chain 1: MSDPRERIPPGNSGEETIGEAFDWLDRTVEEINRAAVNHLPRELIFQVWRRSWEYWHDEMGMSVSYTKYRYLCLIQKAMFMHCKKGCRCLGGEHGAGGWRPGPPPPPPPGLA
chain 2: not shown
Take B1: the binding result is on record as “binds”.
